Laboratory results: doi:10.1101/313882, “Cryptic adaptor protein interactions regulate DNA replication initiation” (bioRxiv, 2018)

How the values were obtained:
[1] = target: the molecule itself; assay: cross-linking; purified DnaD^WHD or variant at 16 uM with 0.03%, 0.06%, 0.12% glutaraldehyde; 20 mM HEPES pH 7.7, 150 mM NaCl, 1 mM DTT, 1 mM EDTA, 5% glycerol; 15 minutes at room temperature; SDS-polyacrylamide gel, coomassie blue
[2] = target: the molecule itself; assay: SEC; size exclusion chromatogram of wild type DnaD^WHD or the ΔNT variant, absorbance at 280 nm (S2 Fig B)

Row | Protein | stoichiometry N [1] | further results
1 | purified DnaD^WHD F51A (B. subtilis) (domain or fragment, UniProt P39787 1-128, looked up, DnaD, B. subtilis, winged helix domain, amino acids 1-128, F51A; source: E. coli BL21 (DE3), purified (amylose, Ulp1 digestion, HiTrap Q, Sephacryl S-200); not shown: HIS6, N-terminal, cleaved; MBP, N-terminal, cleaved; SUMO, N-terminal, cleaved) MKKQQFIDMQEQGTSTIPNLLLTHYKQLGLNETELILLLKIKMHLEKGSYAPTPNQLQEGMSISVEECTNRLRMFIQKGFLFIEECEDQNGIKFEKYSLQPLWGKLYEYIQLAQNQTQERKAEGEQKS | 4 | 
2 | purified DnaD^WHD I83A (B. subtilis) (domain or fragment, UniProt P39787 1-128, looked up, DnaD, B. subtilis, winged helix domain, amino acids 1-128, I83A; source: E. coli BL21 (DE3), purified (amylose, Ulp1 digestion, HiTrap Q, Sephacryl S-200); not shown: HIS6, N-terminal, cleaved; MBP, N-terminal, cleaved; SUMO, N-terminal, cleaved) MKKQQFIDMQEQGTSTIPNLLLTHYKQLGLNETELILLLKIKMHLEKGSYFPTPNQLQEGMSISVEECTNRLRMFIQKGFLFAEECEDQNGIKFEKYSLQPLWGKLYEYIQLAQNQTQERKAEGEQKS | 4 | 
3 | purified DnaD^WHD, wild type (B. subtilis) (domain or fragment, UniProt P39787 1-128, looked up, DnaD, B. subtilis, winged helix domain, amino acids 1-128; native N-terminus after Ulp1; also called WT; source: E. coli BL21 (DE3), purified (amylose, Ulp1 digestion, HiTrap Q, Sephacryl S-200); not shown: HIS6, N-terminal, cleaved; MBP, N-terminal, cleaved; SUMO, N-terminal, cleaved) MKKQQFIDMQEQGTSTIPNLLLTHYKQLGLNETELILLLKIKMHLEKGSYFPTPNQLQEGMSISVEECTNRLRMFIQKGFLFIEECEDQNGIKFEKYSLQPLWGKLYEYIQLAQNQTQERKAEGEQKS |  | binding result [1]: binds
4 | purified DnaD^WHD ΔNT variant (B. subtilis) (domain or fragment, UniProt P39787 19-128, looked up, DnaD, B. subtilis, winged helix domain (1-128) without the N-terminal extension (residues 1-18); The limits 19-128 are worked out from the printed extension (1-18) and the limits of DnaD^WHD (1-128); the purification is that told for DnaD^WHD and its variants; source: E. coli BL21 (DE3), purified (amylose, Ulp1 digestion, HiTrap Q, Sephacryl S-200); not shown: HIS6, N-terminal, cleaved; MBP, …) NLLLTHYKQLGLNETELILLLKIKMHLEKGSYFPTPNQLQEGMSISVEECTNRLRMFIQKGFLFIEECEDQNGIKFEKYSLQPLWGKLYEYIQLAQNQTQERKAEGEQKS |  | stoichiometry N [2]: 2
